Measurements taken from FireProtDB (doi:10.1021/bi972994k).

Settings: Saccharolobus solfataricus (strain ATCC 35092 / DSM 1617 / JCM 11322 / P2), Thermal, DSC, glycine-HCl 10 mM, NaCl 100 mM, reversible: yes, whole UniProt chain shown

B1: DNA-binding protein 7d wild type, P39476 (protein)
chain: MATVKFKYKGEEKEVDISKIKKVWRVGKMISFTYDEGGGKTGRGAVSEKDAPKELLQMLEKQKK
- Tm (pH 2.3): 64 °C
- heat capacity change of unfolding (pH 2.3): 0.48 kcal/mol/K
- unfolding enthalpy (calorimetric) (pH 2.3): 40.6 kcal/mol
- Tm (pH 2.5): 65.5 °C
- heat capacity change of unfolding (pH 2.5): 0.57 kcal/mol/K
- unfolding enthalpy (calorimetric) (pH 2.5): 43 kcal/mol
- Tm (pH 2.7): 71.1 °C
- heat capacity change of unfolding (pH 2.7): 0.57 kcal/mol/K
- unfolding enthalpy (calorimetric) (pH 2.7): 46.6 kcal/mol
- Tm (pH 2.8): 74 °C
- heat capacity change of unfolding (pH 2.8): 0.45 kcal/mol/K
- unfolding enthalpy (calorimetric) (pH 2.8): 49 kcal/mol
- Tm (pH 2.9): 76.3 °C
- heat capacity change of unfolding (pH 2.9): 0.65 kcal/mol/K
- unfolding enthalpy (calorimetric) (pH 2.9): 50.2 kcal/mol
- Tm (pH 3): 78.8 °C
- heat capacity change of unfolding (pH 3): 0.74 kcal/mol/K
- unfolding enthalpy (calorimetric) (pH 3): 51.4 kcal/mol
- Tm (pH 3.2): 84.2 °C
- heat capacity change of unfolding (pH 3.2): 0.72 kcal/mol/K
- unfolding enthalpy (calorimetric) (pH 3.2): 55 kcal/mol
- Tm (pH 3.6): 90.3 °C
- heat capacity change of unfolding (pH 3.6): 0.6 kcal/mol/K
- unfolding enthalpy (calorimetric) (pH 3.6): 58.6 kcal/mol
- Tm (pH 3.8): 92.4 °C
- heat capacity change of unfolding (pH 3.8): 0.69 kcal/mol/K
- unfolding enthalpy (calorimetric) (pH 3.8): 59.8 kcal/mol
- Tm (pH 4): 95.1 °C
- heat capacity change of unfolding (pH 4): 0.55 kcal/mol/K
- unfolding enthalpy (calorimetric) (pH 4): 63.3 kcal/mol
